Measured values as given in patent publication US20200069778A1, “PLANT-EXPRESSED COCAINE HYDROLASE VARIANTS OF BUTYRYLCHOL[…] METHODS OF REDUCING COCAINE-PRIMED REINSTATEMENT” (priority 2018, published 2020).

Assay: Radiometric (−)-cocaine hydrolysis assay
Type: biochemical
Settings: 25° C.

B1: WT pBChE (protein, UniProt P06276 29-602, looked up)
Cholinesterase: EDDIIIATKNGKVRGMNLTVFGGTVTAFLGIPYAQPPLGRLRFKKPQSLTKWSDIWNATKYANSCCQNIDQSFPGFHGSEMWNPNTDLSEDCLYLNVWIPAPKPKNATVLIWIYGGGFQTGTSSLHVYDGKFLARVERVIVVSMNYRVGALGFLALPGNPEAPGNMGLFDQQLALQWVQKNIAAFGGNPKSVTLFGESAGAASVSLHLLSPGSHSLFTRAILQSGSFNAPWAVTSLYEARNRTLNLAKLTGCSRENETEIIKCLRNKDPQEILLNEAFVVPYGTPLSVNFGPTVDGDFLTDMPDILLELGQFKKTQILVGVNKDEGTAFLVYGAPGFSKDNNSIITRKEFQEGLKIFFPGVSEFGKESILFHYTDWVDDQRPENYREALGDVVGDYNFICPALEFTKKFSEWGNNAFFYYFEHRSSKLPWPEWMGVMHGYEIEFVFGLPLERRDNYTKAEEILSRSIVKRWANFAKYGNPNETQNNSTSWPVFKSTEQKYLTLNTESTRIMTKLRAQQCRFWTSFFPKVLEMTGNIDEAEWEWKAGFHRWNNYMMDWKNQFNDYTSKKESCVGL
modifications: plant-expressed
Km: 2.9 µM | kcat against (−)-cocaine: 0.0433 s⁻¹
